T1: cynomolgus GFRα3 on HEK293/MfGFRα3/MfRet/SRE-Luc cells (cynomolgus, UniProt O60609 1-400 (human entry), limits assumed)
T1 chain: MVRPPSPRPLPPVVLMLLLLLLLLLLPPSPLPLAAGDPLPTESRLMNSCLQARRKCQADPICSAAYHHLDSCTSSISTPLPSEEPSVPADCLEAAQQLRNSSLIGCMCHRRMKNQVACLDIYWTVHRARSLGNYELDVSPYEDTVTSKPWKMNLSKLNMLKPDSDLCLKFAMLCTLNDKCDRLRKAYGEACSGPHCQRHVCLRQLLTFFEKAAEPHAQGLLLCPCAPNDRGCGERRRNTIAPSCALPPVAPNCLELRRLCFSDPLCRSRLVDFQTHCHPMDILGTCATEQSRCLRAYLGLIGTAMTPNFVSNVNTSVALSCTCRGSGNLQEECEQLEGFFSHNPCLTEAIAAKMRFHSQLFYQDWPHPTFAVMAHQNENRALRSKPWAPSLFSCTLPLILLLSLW

T2: human GFRα3 on HEK293/hGFRα3/hRET/SRE-luc cells (human, UniProt O60609 32-382)
T2 sequence: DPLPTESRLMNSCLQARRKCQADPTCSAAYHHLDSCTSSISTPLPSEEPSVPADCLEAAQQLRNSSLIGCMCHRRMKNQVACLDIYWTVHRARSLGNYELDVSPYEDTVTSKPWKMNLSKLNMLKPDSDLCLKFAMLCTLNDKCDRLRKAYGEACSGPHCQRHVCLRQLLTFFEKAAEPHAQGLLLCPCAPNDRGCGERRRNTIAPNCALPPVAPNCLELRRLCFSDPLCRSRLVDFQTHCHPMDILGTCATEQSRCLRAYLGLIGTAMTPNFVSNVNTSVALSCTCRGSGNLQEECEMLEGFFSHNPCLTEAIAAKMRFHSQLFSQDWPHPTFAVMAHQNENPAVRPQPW


What was measured:
[1] = target: T1, cynomolgus GFRα3 on …; test: cell-based or functional assay
[2] = target: T2, human GFRα3 on …; test: cell-based or functional assay
[3] = target: T3, human GFRα3 expressed with a C-terminal myc-myc-hexahistidine tag (human, UniProt O60609 32-374, biotinylated (sites not given) in ELISA format 2 and in the Octet cross-competition; not in SPR); test: blocking ELISA 2, biotin-hGFRα3-mmH to coated hARTEMIN-mmH + hRET-10His
T3 construct: also called hGFRα3-mmh; hGFRα3-mmH
Protocol: (§1) The equilibrated sample solutions were then transferred to the hARTEMIN-mmH-coated plate. […] Absorbance was recorded at 450 nm on a Victor X5 plate reader (Perkin Elmer) to determine the amount of free hGFRα3-hFc in the pre-equilibrated hGFRα3-hFc-antibody solutions that was able to bind to the plate coated with hARTEMIN-mmH. IC₅₀ values, defined as the concentration of antibody required to reduce the signal from a constant concentration of hGFRα3-hFc by 50%, were calculated from the data using Prism software from GraphPad. The absorbance measured at the constant amount of 120 pM hGFRα3-hFc in the absence of anti-GFRα3 antibody is defined as 0% blocking and the absorbance with no added hGFRα3-hFc is defined as 100% blocking. The observed absorbance in the wells containing the highest antibody concentration was used to calculate the maximum blocking percent shown in the table.
In the second ELISA format, the plates, samples and data were processed similarly as for the first format except both hARTEMIN-mmH and human RET with a C-terminal 10 histidine tag (hRET-10His; R&D Systems, #1168-CR/CF) were coated for the blocking ELISA experiment. The 96-well microtiter plates were coated with a mixture of 1.2 ug/ml hARTEMIN-mmH and 6.9 ug/ml hRET-10His proteins in PBS overnight at 4° C. and then blocked with a solution of 0.5% (w/v) BSA. A constant amount of biotinylated human GFRα3 with a C-terminal myc-myc-hexahistidine tag (biotin-hGFRα3-mmH; SEQ ID:370) at 1 nM was pre-mixed with varied amounts of anti-GFRα3 antibodies, ranging from 0 to ˜100 nM in serial dilutions, followed by a 1 hour incubation at RT to allow antibody-biotin-hGFRα3-mmH binding to reach equilibrium. The equilibrated samples were then transferred to the coated plate. After 1 hour of binding, the plate was washed, then the bound biotin-hGFRα3-mmH was detected using HRP conjugated streptavidin (Pierce, #N200), and colorimetric signals were developed using TMB HRP substrates.

[4] = target: T4, human GFRα3 expressed with a C-terminal hFc tag (human); test: blocking ELISA 1, hGFRα3-hFc to coated hARTEMIN-mmH
T4 construct: also called hGFRα3-hFc
Protocol: as §1, with “A constant amount of human GFRα3 fused with a C-terminal human Fc tag (hGFRα3-hFc; SEQ ID:371) at 120 pM was pre-mixed with varying amounts of antibodies, ranging from 0 to ˜10 nM in serial dilutions, followed by an 1 hour incubation at room temperature (RT) to allow antibody-hGFRα3-hFc binding to reach equilibrium. The equilibrated” for “The equilibrated”

Row | EC50 of SRE-dependent luciferase activity in HEK293/mfGFRα3/mfRet/SRE-LUC cells [1] [nM] | IC50 (SRE-luc, HEK293/hGFRα3/hRET cells, 100 pM hARTEMIN-mmH) [2] [nM] | % max blocking [3] [%] | IC50 [3] [nM] | % max blocking [4] [%] | IC50 [4] [nM] | Binder
1 | 0.07 | – | – | – | – | – | recombinant human ARTEMIN protein with a C-terminal myc-myc-hexahistidine tag (ligand) AGGPGSRARAAGARGCRLRSQLVPVRALGLGHRSDELVRFRFCSGSCRRARSPHDLSLASLLGAGALRPPPGSRPVSQPCCRPTRYEAVSFMDVNSTWRTVDRLSATACGCLGEQKLISEEDLGGEQKLISEEDLHHHHHH
2 | – | 2.4 | 85 | 7.3 | – | – | H4H2207N (antibody, human IgG4, V domains shown, human IgG4 Fc (H4H)) VH: EVQLVESGGGLVQPGRSLRLSCAASGFTFNDYAMHWVRQAPGKGLEWVSGISWNSGNIGYADSVKGRFTISRDNAKNSLYLQMNSLRAEDTALYFCARDTRMATRPFDYWGQGTLVTVSS VL: not shown
3 | – | 2.3 | 97 | 3.42 | 70 | 0.0829 | H4H2234N (antibody, human IgG4, V domains shown, human IgG4 Fc (H4H)) VH: EVQLLESGGGLVQSGGSLRLSCAASGFSFNNYAMSWVRQAPGKGLEWVSFISGSGGSTYYADSVKGRFTISRDNSKNTLYLQMNSLRVEDTAVFYCAKDRYNYGTFFDYWGQGTLVTVSS VL: not shown

Reference: patent publication US20140056903A1 (Regeneron, published 2014)
